Assay results reported in patent US20230265208A1 (Dana-Farber, published 2023).
Changes are numbered by the printed parent chain.

T1: WT p58/p62 heterodimer (human, UniProt P15941 1036-1097, limits assumed)
T1 construct: domain: 62 amino acid region (p62) of the SEA domain; Construct limits and tags are not described; also called p62/p58 heterodimer; WT protein
T1 sequence 1: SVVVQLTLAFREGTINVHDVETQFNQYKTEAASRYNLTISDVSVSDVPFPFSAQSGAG
T1 sequence 2: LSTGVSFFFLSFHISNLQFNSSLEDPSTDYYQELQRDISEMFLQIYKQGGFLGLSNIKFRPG

T2: MUC1-ECD (human, UniProt P15941 1098-1155)
T2 construct: also called Ag MUC1-ECD; Antigen MUC1-ECD
T2 sequence: T1 sequence 1

B1: GO-702m (antibody, V domains shown)
VH: QVQLQQSGAELMKPGASVKISCKAIGFTFNYFWIEWVKQRPGHGLEWIGEILPGTGSTNYNEKFKGKAIFTADTSSNTAYMQLRSLTSEDSAVYYCVRYDYTSSMDYWGQGTSVTVSS
VL: DIVLTQSPGSLAVSLGQSVTISCRASESVQYSGTSLMHWYQQKPGQPPKLLIYGASNVETGVPARFSGSGSGTDFSLNIHPVEEDDIAMYFCQQNWKVPWTFGGGTKLEIK
notes: Mouse monoclonal antibody, detected with anti-mouse IgG kappa
B2: GO-702h wild-type (antibody)
heavy: not shown
light: EIVLTQSPATLSLSPGERATLSCRASESVQYSGTSLMHWYQQKPGQAPRLLIYGASNVETGIPARFSGSGSGTDFTLTISSLEPEDFAVYYCQQNWKVPWTFGQGTKVEIKRTVAAPSVFIFPPSDEQLKSGTASVVCLLNNFYPREAKVQWKVDNALQSGNSQESVTEQDSKDSTYSLSSTLTLSKADYEKHKVYACEVTHQGLSSPVTKSFNRGEC
notes: copies: 2 + 2
B3: VH1 + VL4 (antibody, V domains shown)
VH: QVQLVQSGAEVKKPGSSVKVSCKASGYAFSNFWMNWVRQAPGQGLEWMGQIYPGDGDTNYNGKFKGRVTITADKSTSTAYMELSSLRSEDTAVYYCARSYYRSAWFAYWGQGTLVTVSS
VL: AIQLTQSPSSLSASVGDRVTITCRASQSIGTSIHWYQQKPGKAPKLLIYYASESISGVPSRFSGSGSGTDFTLTISSLQPEDFATYYCQQSNNWPLTFGGGTKVEIK
B4: VH5 + VL2 (antibody, V domains shown)
VH: EVQLVQSGAEVKKPGESLKISCKGSGYAFSNFWMNWVRQMPGKGLEWMGQIYPGDGDTNYNGKFKGQVTISADKSISTAYLQWSSLKASDTAMYYCARSYYRSAWFAYWGQGTLVTVSL
VL: EIVMTQSPATLSVSPGERATLSCRASQSIGTSIHWYQQKPGQAPRLLIYYASESISGIPARFSGSGSGTEFTLTISSLQSEDFAVYYCQQSNNWPLTFGGGTKVEIK
B5: VH2 + VL3 (antibody, V domains shown)
VH: B3 VH with S16A, I70M, A72R, K74T, A79V
VL: B4 VL with M4L, V13L, E70D, Q79E, S80P
B6: VH1 + VL3 (antibody, V domains shown)
VH: B3 VH
VL: B4 VL with M4L, V13L, E70D, Q79E, S80P
B7: VH5 + VL3 (antibody, human IgG1, kappa, V domains shown)
VH: EVQLVQSGAEVKKPGESLKISCKGSGFTFNYFWIEWVRQMPGKGLEWMGEILPGTGSTNYNEKFKGQVTISADKSISTAYLQWSSLKASDTAMYYCARYDYTSSMDYWGQGTLVTVSS
VL: EIVLTQSPATLSLSPGERATLSCRASESVQYSGTSLMHWYQQKPGQAPRLLIYGASNVETGIPARFSGSGSGTDFTLTISSLEPEDFAVYYCQQNWKVPWTFGQGTKVEIKR
notes: Full-length humanized IgG expressed in HEK293 and purified on protein A. Constant regions not specified; also called #23 (inferred from 5x5 numbering)

Assays:
WT p58/p62 heterodimer = biological target: T1, WT p58/p62 heterodimer; assay: left panel, Absorbance against Concentration (nM). The panel does not name the target. The axis points to the ELISA on WT p58/p62 of the legend, while the legend's first sentence speaks of MFI on HCT116 cells.
MUC1-ECD [1] = biological target: T2, MUC1-ECD; assay: SPR (Biacore), 1:1 fit; panel 'GO-702h'; analyte cell empty, antigen at 1.875-60 nM by the legend; same numbers as Table 7 prints for VH5 + VL3
MUC1-ECD [2] = biological target: T2, MUC1-ECD; assay: SPR Biacore T200, antibody on chip, MUC1-ECD analyte, 1:1 fit

Binder | EC50 (WT p58/p62 heterodimer) | Kd (MUC1-ECD [1]) | koff (MUC1-ECD [1]) | kon (MUC1-ECD [1]) | Kd (MUC1-ECD [2]) | koff (MUC1-ECD [2]) | kon (MUC1-ECD [2])
B1 | 0.6 nM |  |  |  |  |  | 
B2 |  | 1.55 nM | 0.000844 s⁻¹ | 545000 M⁻¹ s⁻¹ |  |  | 
B3 |  |  |  |  | 7.13 nM | 0.00315 s⁻¹ | 442000 M⁻¹ s⁻¹
B4 |  |  |  |  | 2.75 nM | 0.00125 s⁻¹ | 455000 M⁻¹ s⁻¹
B5 |  |  |  |  | 3.6 nM | 0.00145 s⁻¹ | 404000 M⁻¹ s⁻¹
B6 |  |  |  |  | 5.23 nM | 0.00222 s⁻¹ | 425000 M⁻¹ s⁻¹
B7 |  |  |  |  | 1.55 nM | 0.000844 s⁻¹ | 545000 M⁻¹ s⁻¹
